Test results from patent US12679878B2, “CRF2 receptor agonists and their use in therapy” (SANOFI, priority 2020, dated 2026).
Starred links: 1 amine or outer side, 2 acyl side, 3 side chain; linkers in the order of their positions; H or OH if unused. Non-standard residues stand in square brackets, D forms with d. Residues, ends and D or L forms follow the SMILES beside them. Groups on a side chain read outwards from the residue. No end group written: not given here. *: point of attachment. C16 diacid = O=C(O)CCCCCCCCCCCCCCC(=O)*; γGlu = O=C(O)[C@H](CCC(=O)[*:2])N[*:1]; Palmitoyl = CCCCCCCCCCCCCCCC(=O)*; AEEA = NCCOCCOCC(=O)O; Aib = CC(C)(N)C(=O)O

T1: human CRF2α receptor (Homo sapiens, UniProt Q13324)
T1 construct: expressed in transfected cells; host or cells: TeloHEAC
T1 sequence (Q13324 1-411): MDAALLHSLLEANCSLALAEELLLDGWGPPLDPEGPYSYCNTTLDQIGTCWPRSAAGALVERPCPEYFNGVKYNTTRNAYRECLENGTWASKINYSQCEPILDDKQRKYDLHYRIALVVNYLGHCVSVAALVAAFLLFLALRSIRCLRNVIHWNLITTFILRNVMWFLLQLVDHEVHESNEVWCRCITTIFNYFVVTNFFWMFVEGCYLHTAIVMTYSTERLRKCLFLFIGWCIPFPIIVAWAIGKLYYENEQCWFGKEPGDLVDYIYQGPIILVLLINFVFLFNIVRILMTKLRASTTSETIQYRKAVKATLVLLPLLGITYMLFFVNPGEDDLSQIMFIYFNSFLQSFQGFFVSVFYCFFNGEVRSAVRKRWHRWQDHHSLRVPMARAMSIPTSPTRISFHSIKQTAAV

T2: CRF1R receptor (anti-target) (UniProt P34998 24-415, limits assumed)
T2 sequence (looked up): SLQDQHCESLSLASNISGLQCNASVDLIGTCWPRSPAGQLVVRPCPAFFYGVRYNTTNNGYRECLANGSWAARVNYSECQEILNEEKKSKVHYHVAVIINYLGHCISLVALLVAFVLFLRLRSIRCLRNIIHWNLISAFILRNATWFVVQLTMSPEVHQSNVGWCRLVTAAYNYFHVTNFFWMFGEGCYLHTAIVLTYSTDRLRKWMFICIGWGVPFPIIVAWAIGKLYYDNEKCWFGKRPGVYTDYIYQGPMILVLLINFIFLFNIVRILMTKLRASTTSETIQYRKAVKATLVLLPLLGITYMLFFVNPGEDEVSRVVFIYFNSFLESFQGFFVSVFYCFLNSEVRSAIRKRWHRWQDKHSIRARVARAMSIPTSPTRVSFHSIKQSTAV

B1: peptide of SEQ ID NO: 195 (peptide)
peptide: IVLSLD[dV]PIGLK([γGlu-C16 diacid])QILLKQERQKK[Aib]RQQAETNKRILERV-NH2
modifications: N-terminus assumed
SMILES: CC[C@H](C)[C@H](N)C(=O)N[C@H](C(=O)N[C@@H](CC(C)C)C(=O)N[C@@H](CO)C(=O)N[C@@H](CC(C)C)C(=O)N[C@@H](CC(=O)O)C(=O)N[C@@H](C(=O)N1CCC[C@H]1C(=O)N[C@H](C(=O)NCC(=O)N[C@@H](CC(C)C)C(=O)N[C@@H](CCCCNC(=O)CC[C@H](NC(=O)CCCCCCCCCCCCCCC(=O)O)C(=O)O)C(=O)N[C@@H](CCC(N)=O)C(=O)N[C@H](C(=O)N[C@@H](CC(C)C)C(=O)N[C@@H](CC(C)C)C(=O)N[C@@H](CCCCN)C(=O)N[C@@H](CCC(N)=O)C(=O)N[C@@H](CCC(=O)O)C(=O)N[C@@H](CCCNC(=N)N)C(=O)N[C@@H](CCC(N)=O)C(=O)N[C@@H](CCCCN)C(=O)N[C@@H](CCCCN)C(=O)NC(C)(C)C(=O)N[C@@H](CCCNC(=N)N)C(=O)N[C@@H](CCC(N)=O)C(=O)N[C@@H](CCC(N)=O)C(=O)N[C@@H](C)C(=O)N[C@@H](CCC(=O)O)C(=O)N[C@H](C(=O)N[C@@H](CC(N)=O)C(=O)N[C@@H](CCCCN)C(=O)N[C@@H](CCCNC(=N)N)C(=O)N[C@H](C(=O)N[C@@H](CC(C)C)C(=O)N[C@@H](CCC(=O)O)C(=O)N[C@@H](CCCNC(=N)N)C(=O)N[C@H](C(N)=O)C(C)C)[C@@H](C)CC)[C@@H](C)O)[C@@H](C)CC)[C@@H](C)CC)C(C)C)C(C)C
B2: peptide of SEQ ID NO: 187 (peptide)
peptide: IVLSLD[dV]PIKLK([γGlu-C16 diacid])QILLKQERQK[Aib]QREQAEKNKQILAQV-NH2
modifications: N-terminus assumed
SMILES: CC[C@H](C)[C@H](N)C(=O)N[C@H](C(=O)N[C@@H](CC(C)C)C(=O)N[C@@H](CO)C(=O)N[C@@H](CC(C)C)C(=O)N[C@@H](CC(=O)O)C(=O)N[C@@H](C(=O)N1CCC[C@H]1C(=O)N[C@H](C(=O)N[C@@H](CCCCN)C(=O)N[C@@H](CC(C)C)C(=O)N[C@@H](CCCCNC(=O)CC[C@H](NC(=O)CCCCCCCCCCCCCCC(=O)O)C(=O)O)C(=O)N[C@@H](CCC(N)=O)C(=O)N[C@H](C(=O)N[C@@H](CC(C)C)C(=O)N[C@@H](CC(C)C)C(=O)N[C@@H](CCCCN)C(=O)N[C@@H](CCC(N)=O)C(=O)N[C@@H](CCC(=O)O)C(=O)N[C@@H](CCCNC(=N)N)C(=O)N[C@@H](CCC(N)=O)C(=O)N[C@@H](CCCCN)C(=O)NC(C)(C)C(=O)N[C@@H](CCC(N)=O)C(=O)N[C@@H](CCCNC(=N)N)C(=O)N[C@@H](CCC(=O)O)C(=O)N[C@@H](CCC(N)=O)C(=O)N[C@@H](C)C(=O)N[C@@H](CCC(=O)O)C(=O)N[C@@H](CCCCN)C(=O)N[C@@H](CC(N)=O)C(=O)N[C@@H](CCCCN)C(=O)N[C@@H](CCC(N)=O)C(=O)N[C@H](C(=O)N[C@@H](CC(C)C)C(=O)N[C@@H](C)C(=O)N[C@@H](CCC(N)=O)C(=O)N[C@H](C(N)=O)C(C)C)[C@@H](C)CC)[C@@H](C)CC)[C@@H](C)CC)C(C)C)C(C)C
B3: peptide of SEQ ID NO: 189 (peptide)
peptide: IVLSLD[dV]PIKLK([γGlu-C16 diacid])QILLKQERQKK[Aib]RQKAEKNKQILAQV-NH2
modifications: N-terminus assumed
SMILES: CC[C@H](C)[C@H](N)C(=O)N[C@H](C(=O)N[C@@H](CC(C)C)C(=O)N[C@@H](CO)C(=O)N[C@@H](CC(C)C)C(=O)N[C@@H](CC(=O)O)C(=O)N[C@@H](C(=O)N1CCC[C@H]1C(=O)N[C@H](C(=O)N[C@@H](CCCCN)C(=O)N[C@@H](CC(C)C)C(=O)N[C@@H](CCCCNC(=O)CC[C@H](NC(=O)CCCCCCCCCCCCCCC(=O)O)C(=O)O)C(=O)N[C@@H](CCC(N)=O)C(=O)N[C@H](C(=O)N[C@@H](CC(C)C)C(=O)N[C@@H](CC(C)C)C(=O)N[C@@H](CCCCN)C(=O)N[C@@H](CCC(N)=O)C(=O)N[C@@H](CCC(=O)O)C(=O)N[C@@H](CCCNC(=N)N)C(=O)N[C@@H](CCC(N)=O)C(=O)N[C@@H](CCCCN)C(=O)N[C@@H](CCCCN)C(=O)NC(C)(C)C(=O)N[C@@H](CCCNC(=N)N)C(=O)N[C@@H](CCC(N)=O)C(=O)N[C@@H](CCCCN)C(=O)N[C@@H](C)C(=O)N[C@@H](CCC(=O)O)C(=O)N[C@@H](CCCCN)C(=O)N[C@@H](CC(N)=O)C(=O)N[C@@H](CCCCN)C(=O)N[C@@H](CCC(N)=O)C(=O)N[C@H](C(=O)N[C@@H](CC(C)C)C(=O)N[C@@H](C)C(=O)N[C@@H](CCC(N)=O)C(=O)N[C@H](C(N)=O)C(C)C)[C@@H](C)CC)[C@@H](C)CC)[C@@H](C)CC)C(C)C)C(C)C

Legend:
human CRF2α receptor = biological target: T1, human CRF2α receptor; test: cAMP agonism at human CRF2α receptor in TeloHEAC cells, FA modified peptides (Example 19.9); format: cell-based; conditions: 0% HSA, relative to urocortin 2
Experimental: Agonism of compounds for human corticotropin-releasing factor 2α (CRF2α receptor) was determined by a functional assay measuring cAMP modulation upon treatment of TeloHEAC cells stably expressing human CRF2α receptor.
Compounds were dissolved at 0.5 mM in 100% DMSO and serially diluted (1:2) in 100% DMSO for 16 dilutions. 20 nL of each dilution was then transferred to 384-well assay plate using an acoustic droplet ejection instrument. 5 μL of compound buffer (1×HBSS; 20 mM HEPES, 2 mM IBMX, 0% or 0.2% HSA) were then added to each well.
Prior to use, frozen cells were thawed quickly at 37° C. and washed (5 min at 900 rpm) with 20 mL cell buffer (1×HBSS; 20 mM HEPES). Cells were resuspended in cell buffer and adjusted to a cell density of 800.000 cells/ml.
5 μL cells (final dell density: 4000 cells/well) were dispensed in the compound-containing 384-well assay plate and incubated for 30 minutes 37° C.
The CAMP level in treated cells was determined using the Cisbio 62AM4PEC kit according to manufacturer's instruction. Finally, plates were incubated for 1 h at room temperature before measuring the fluorescence ratio between 665/620 nm.
The percent activity value (E %) was calculated by setting 100 nM of urocortin 2 (UCN2) as 100%. The in vitro potency of the compounds was quantified by determining the concentrations that caused 50% activation of maximal response (EC50) relative to urocortin 2.

[1] = biological target: T2, CRF1R receptor (anti-target); test: cell-based or functional assay

Molecule | EC50 (human CRF2α receptor) | CRF1/CRF2 ratio (of EC50) [1] | CRF1 EC50 (cAMP, HTRF) [1]
CCCCCCCCCCCCCCCC(=O)N[C@@H](CCC(=O)NCCOCCOCC(=O)NCCOCCOCC(=O)NCCCC[C@H](NC(=O)[C@H](CC(C)C)NC(=O)[C@H](CCCCN)NC(=O)[C@@H](NC(=O)[C@@H]1CCCN1C(=O)[C@H](NC(=O)[C@H](CC(=O)O)NC(=O)[C@H](CC(C)C)NC(=O)[C@H](CO)NC(=O)[C@H](CC(C)C)NC(=O)[C@@H](NC(=O)[C@@H](N)[C@@H](C)CC)C(C)C)C(C)C)[C@@H](C)CC)C(=O)N[C@@H](CCC(N)=O)C(=O)N[C@H](C(=O)N[C@@H](CC(C)C)C(=O)N[C@@H](CC(C)C)C(=O)N[C@@H](CCCCN)C(=O)N[C@@H](CCC(N)=O)C(=O)N[C@@H](CCC(=O)O)C(=O)N[C@@H](CCCNC(=N)N)C(=O)N[C@@H](CCC(N)=O)C(=O)N[C@@H](CCCCN)C(=O)NC(C)(C)C(=O)N[C@@H](CCC(N)=O)C(=O)N[C@@H](CCCNC(=N)N)C(=O)N[C@@H](CCC(=O)O)C(=O)N[C@@H](CCC(N)=O)C(=O)N[C@@H](C)C(=O)N[C@@H](CCC(=O)O)C(=O)N[C@@H](CCCCN)C(=O)N[C@@H](CC(N)=O)C(=O)N[C@@H](CCCCN)C(=O)N[C@@H](CCC(N)=O)C(=O)N[C@H](C(=O)N[C@@H](CC(C)C)C(=O)N[C@@H](C)C(=O)N[C@@H](CCC(N)=O)C(=O)N[C@H](C(N)=O)C(C)C)[C@@H](C)CC)[C@@H](C)CC)C(=O)O [compound 205] (H-IVLSLD[dV]PIKLK([AEEA-AEEA-γGlu-Palmitoyl])QILLKQERQK[Aib]QREQAEKNKQILAQV-NH2; N-terminus assumed) | 0.32 nM |  | 
CCCCCCCCCCCCCCCC(=O)N[C@@H](CCC(=O)N[C@@H](CCC(=O)NCCOCCOCC(=O)NCCOCCOCC(=O)NCCCC[C@H](NC(=O)[C@H](CC(C)C)NC(=O)[C@H](CCCCN)NC(=O)[C@@H](NC(=O)[C@@H]1CCCN1C(=O)[C@H](NC(=O)[C@H](CC(=O)O)NC(=O)[C@H](CC(C)C)NC(=O)[C@H](CO)NC(=O)[C@H](CC(C)C)NC(=O)[C@@H](NC(=O)[C@@H](N)[C@@H](C)CC)C(C)C)C(C)C)[C@@H](C)CC)C(=O)N[C@@H](CCC(N)=O)C(=O)N[C@H](C(=O)N[C@@H](CC(C)C)C(=O)N[C@@H](CC(C)C)C(=O)N[C@@H](CCCCN)C(=O)N[C@@H](CCC(N)=O)C(=O)N[C@@H](CCC(=O)O)C(=O)N[C@@H](CCCNC(=N)N)C(=O)N[C@@H](CCC(N)=O)C(=O)N[C@@H](CCCCN)C(=O)NC(C)(C)C(=O)N[C@@H](CCC(N)=O)C(=O)N[C@@H](CCCNC(=N)N)C(=O)N[C@@H](CCC(=O)O)C(=O)N[C@@H](CCC(N)=O)C(=O)N[C@@H](C)C(=O)N[C@@H](CCC(=O)O)C(=O)N[C@@H](CCCCN)C(=O)N[C@@H](CC(N)=O)C(=O)N[C@@H](CCCCN)C(=O)N[C@@H](CCC(N)=O)C(=O)N[C@H](C(=O)N[C@@H](CC(C)C)C(=O)N[C@@H](C)C(=O)N[C@@H](CCC(N)=O)C(=O)N[C@H](C(N)=O)C(C)C)[C@@H](C)CC)[C@@H](C)CC)C(=O)O)C(=O)O [compound 206] (H-IVLSLD[dV]PIKLK([AEEA-AEEA-γGlu-γGlu-Palmitoyl])QILLKQERQK[Aib]QREQAEKNKQILAQV-NH2; N-terminus assumed) | 0.09 nM |  | 
B1 |  | > 500 | > 100 nM
B2 |  | > 500 | > 100 nM
B3 |  | > 500 | > 100 nM
